Assay results: patent US20260241018A1 (BIOCYTOGEN PHARMACEUTICALS BEIJING, published 2026)

Target: T1, 5T4 on NCI-H226 cells, NCI-H2030 cells and HCC827 cells (UniProt Q13641 32-420, limits assumed)
T1 construct: whole, on cells
T1 sequence (looked up): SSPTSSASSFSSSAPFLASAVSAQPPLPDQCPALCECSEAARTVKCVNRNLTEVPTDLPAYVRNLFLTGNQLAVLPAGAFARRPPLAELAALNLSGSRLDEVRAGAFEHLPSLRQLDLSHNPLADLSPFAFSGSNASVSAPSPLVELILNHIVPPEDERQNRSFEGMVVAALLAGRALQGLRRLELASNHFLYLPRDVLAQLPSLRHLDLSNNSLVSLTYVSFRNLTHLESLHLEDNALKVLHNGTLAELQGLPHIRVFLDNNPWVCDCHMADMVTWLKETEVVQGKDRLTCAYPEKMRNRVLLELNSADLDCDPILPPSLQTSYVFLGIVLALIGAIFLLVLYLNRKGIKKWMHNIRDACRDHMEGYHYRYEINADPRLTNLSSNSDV
Experiment: flow cytometry on NCI-H226 cells, Alexa Fluor 647 anti-human IgG Fc secondary antibody, MFI
Method: NCI-H226 cells, NCI-H2030 cells or HCC827 cells were plated in a 96-well plate at a density of 2×10⁵ cells/well. Serially diluted purified anti-5T4 antibody 32G1 or the positive control PF06263507 analog-SI (maximum concentration: 20 μg/mL, 2-fold dilutions, 12 gradients) were added to each well and were incubated at 4° C. for 30 minutes. Then, after one wash with PBS, the cells were incubated with the secondary antibody Alexa Fluor® 647 anti human IgG Fcγ (Jackson ImmunoResearch Laboratories, Inc., Cat #: 109-606-170) at 4° C. for 15 minutes before flow cytometry analysis.
The cells were collected, and the mean fluorescence intensity (MFI) was determined.

B1: PF06263507 analog-SI (antibody, V domains shown)
VH: EVQLVESGGGLVQPGGSLRLSCAASGYTFTNFGMNWVRQAPGKGLEWVAWINTNTGEPRYAEEFKGRFTISRDNAKNSLYLQMNSLRAEDTAVYYCARDWDGAYFFDYWGQGTLVTVSS
VL: DIQMTQSPSSLSASVGDRVTITCKASQSVSNDVAWYQQKPGKAPKLLIYFATNRYTGVPSRFSGSGYGTDFTLTISSLQPEDFATYYCQQDYSSPWTFGQGTKVEIK
notes: PF06263507 is a humanized IgG1 monoclonal antibody targeting 5T4; also called positive control PF06263507 analog-SI
binding result: binds
